# Source: paper PMC4112721 (2013)
# B1: VRC01 from stably transformed (transgenic) Nicotiana tabacum plants (antibody, V domains shown)
# VH: QVQLVQSGGQMKKPGESMRISCRASGYEFIDCTLNWIRLAPGKRPEWMGWLKPRGGAVNYARPLQGRVTMTRDVYSDTAFLELRSLTVDDTAVYFCTRGKNCDYNWDFEHWGRGTPVIVSS
# VL: EIVLTQSPGTLSLSPGETAIISCRTSQYGSLAWYQQRPGQAPRLVIYSGSTRAAGIPDRFSGSRWGPDYNLTISNLESGDFGVYYCQQYEFFGQGTKVQVD
# modifications: N-glycan at N297 in the CH2 region (glycopeptide […]), GnGnXF^3 as the major glycan structure | N-glycan in the FR3 of the VL region (glycopeptide […]), GnGnXF^3 as the major glycan structure
# B2: VRC01 from HEK cells (antibody, V domains shown)
# VH: QVQLVQSGGQMKKPGESMRISCRASGYEFIDCTLNWIRLAPGKRPEWMGWLKPRGGAVNYARPLQGRVTMTRDVYSDTAFLELRSLTVDDTAVYFCTRGKNCDYNWDFEHWGRGTPVIVSS
# VL: EIVLTQSPGTLSLSPGETAIISCRTSQYGSLAWYQQRPGQAPRLVIYSGSTRAAGIPDRFSGSRWGPDYNLTISNLESGDFGVYYCQQYEFFGQGTKVQVD
# modifications: N-glycan at N297 in the CH2 region (glycopeptide […]), GnGnF^6 as the predominant glycan structure | N-glycan in the FR3 of the VL region (glycopeptide […]), at least ten glycan structures
# B3: VRC01 from transiently transformed Nicotiana benthamiana plants (antibody, V domains shown)
# VH: QVQLVQSGGQMKKPGESMRISCRASGYEFIDCTLNWIRLAPGKRPEWMGWLKPRGGAVNYARPLQGRVTMTRDVYSDTAFLELRSLTVDDTAVYFCTRGKNCDYNWDFEHWGRGTPVIVSS
# VL: EIVLTQSPGTLSLSPGETAIISCRTSQYGSLAWYQQRPGQAPRLVIYSGSTRAAGIPDRFSGSRWGPDYNLTISNLESGDFGVYYCQQYEFFGQGTKVQVD
# modifications: N-glycan at N297 in the CH2 region (glycopeptide […]), GnGnXF^3 as the major glycan structure | N-glycan in the FR3 of the VL region (glycopeptide […]), GnGnXF^3 as the major glycan structure
# Biological target: HIV-1 envelope glycoprotein gp120 IIIB (HIV-1 (isolate IIIB), UniProt P04578 33-511)
# Assay: SPR
row,Binder,koff [s⁻¹]
1,B1,0.000126
2,B2,5.6e-05
3,B3,0.000159
